For test [1], the target named is Histone 2B (H2B) on the surface of HUVECs (human (endogenous in HUVEC)) (UniProt P62807).
Test [2] has the same target. The source holds these as a separate data set.

Human Glu-plasminogen (ligand) displayed a migration of Plg-treated (200 nM) HUVECs in Boyden chambers: decrease by Fab of the anti-H2B mAb (20 µg/mL) against control mouse Fab (Figure 3A) in test [1] of 47%. In test [2], the Plg-mediated migration of HUVECs in Boyden chambers: decrease by anti-H2B against Plg-treated cells with control mouse IgG (Figure 3B) turned out to be 50%.

For the origin of these results see publication PMC8961594.
